In general, Kd refers to the constant that tells how readily two partners part at equilibrium.

These results are taken from patent US20110165081A1 (published 2011).

This assay has as its target T1, recombinant soluble PSMA (rsPSMA) (human, UniProt Q04609 44-750).
T1 construct: Oligomeric state not specified for the assay; also called secreted rsPSMA; PSMAECTO
Description: Biacore SPR, mAb captured by anti-human IgG, rsPSMA in flow. How it is done: It is ideal for screening crude supernatants.
The entire sensor chip surface was conditioned with five injections of conditioning solution (1 M NaCl, 50 mM NaOH) and equilibrated with PBS buffer containing 0.005% polysorbate 20. Two to three thousand resonance units (RU) of biotinylated anti-human IgG antibody (Sigma) were immobilized onto the SA chip followed by an injection of regeneration buffer (glycine-HCl, pH 2.2). […] For each antibody at one concentration, the chip was regenerated and equilibrated.
In general terms: SPR reads the build-up and loss of mass on a sensor chip optically.

T1 sequence (Q04609 44-750): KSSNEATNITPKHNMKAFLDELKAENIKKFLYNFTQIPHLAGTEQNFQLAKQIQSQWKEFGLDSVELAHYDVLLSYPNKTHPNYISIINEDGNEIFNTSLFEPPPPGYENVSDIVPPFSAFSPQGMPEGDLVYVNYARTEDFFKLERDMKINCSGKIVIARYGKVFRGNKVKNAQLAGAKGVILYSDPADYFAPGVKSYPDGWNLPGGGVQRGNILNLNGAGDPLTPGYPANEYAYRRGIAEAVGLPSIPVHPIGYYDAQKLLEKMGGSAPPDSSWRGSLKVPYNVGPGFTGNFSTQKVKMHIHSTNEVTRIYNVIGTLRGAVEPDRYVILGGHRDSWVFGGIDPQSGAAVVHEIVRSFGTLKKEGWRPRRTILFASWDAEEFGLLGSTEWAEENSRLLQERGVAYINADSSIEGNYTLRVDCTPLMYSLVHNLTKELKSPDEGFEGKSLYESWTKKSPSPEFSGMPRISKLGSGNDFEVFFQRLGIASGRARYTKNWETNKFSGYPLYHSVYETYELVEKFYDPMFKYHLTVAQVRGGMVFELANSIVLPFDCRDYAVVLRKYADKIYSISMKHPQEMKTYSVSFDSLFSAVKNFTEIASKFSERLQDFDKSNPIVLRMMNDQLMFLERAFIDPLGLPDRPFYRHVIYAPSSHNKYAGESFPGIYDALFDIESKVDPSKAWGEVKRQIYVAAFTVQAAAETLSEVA

B1: PSMA 10.3 (antibody, V domains shown)
VH: QEQLVESGGGVVQPGRSLRLSCAASGFTFSTYGMHWVRQAPGKGLEWVAVTWHDGSNKYYADSVKGRFTISRDNSKNTLYLQMNSLRAEDTAVYYCARGGVGATYYYYYGMDVWGQGTTVTVSS
VL: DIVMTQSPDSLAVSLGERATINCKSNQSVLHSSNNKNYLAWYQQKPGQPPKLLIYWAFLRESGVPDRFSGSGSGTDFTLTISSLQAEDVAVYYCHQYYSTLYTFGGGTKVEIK
As to B1, the Kd amounted to 0.193 nM.
